# Assay results from the DeepSol protein solubility set.
# Experiment: soluble on expression in E. coli; label from the status in PepcDB or PDB records
row,Sequence,soluble on expression in E. coli
1,MSLSENIAAYVGLDVHKETLAVAIAAPERLGEVRYYGTINNEAQAVRRLFQKLQGLYGNILSCYEAGPCGFGLYHQLTAMNIKCQVIAPSRIPKSPTDRIKNDHRDAISLARLLRAGELTPVWIPDLTHEAMRDLIRARAAAKRDSRVARQRILSMLLRTDKHYAGKHWTGKHRTWLANQSFSQPSQQIAFQHYCQSLEQIEDRILQLDQEISRLLPEWSLCNLVCQLQALKGVGQLIAITLVAELGDFSRFSNPKQLMAFLGLVPGEYSSGNSIRPRGITKVGNSELRRLLYEAAWSYRTPAKVGAWLIYYRPDSVTQYSKDIAWKAQQRLCSRYRSLTAKGKKSQVAITAVARELTGFMWDIALAAQSSFSQQKQNEGHHHHHH,soluble
2,VGPGMPFANRVVNRFGQVGLVPCSIGGTKLSQWQKGEFLYEETVKRAKAAMASGGGGSYRAVLWYQGESDTVDMVDASVYKKRLVKFFSDLRNDLQHPNLPIIQVRCLNT,soluble
3,MQSVTPTSQYLKALNEGSHQPDDVQKEAVSRLEIIYQELINSRPPAPRTSGLMARVGKLWGKREDTKHTPVRGLYMWGGVGRGKTWLMDLFYQSLPGERKQRLHFHRFMLRVHEELTALQGQTDPLEIIADRFKAETDVLCFDEFFVSDITDAMLLGGLMKALFTRGITLVATSNIPPDELYRNGLQRARFLPAIDAIKQHCDVMNVDAGVDYRLRTLTQAHLWLSPLNDETRAQMDKLWLALAGVKRENSPTLEINHRPLATMGVENQTLAVSFTTLCVDARSQHDYIALSRLFHTVMLFDVPVMTRLMESEARRFIALVDEFYERHVKLVVSAEVPLYEIYQGERLKFEFQRCLSRLQEMQSEEYLKREHLAGLEHHHHHH,soluble
4,MRILFVGPPLYGLLYPVLSLAQAFRVNGHEVLIASGGKFAQKAAEAGLVVFDAAPGFDSEAGYRRQEALRKENNIGTKMGNFSFFSEEMTDPLVAFAGQWRPDLIVYPPLGVVGPLIAAKYDIPVVMQTVGFGHTPWHIKGVTKSLSNAYRRHGVSAPPRDLAWIDVTPPSMSILQNDGEPVISMQYVPYNGGAVWEEWWERTPDRKRLLVSLGTVKPMVDGLDLISWVMDSAGEVDAEIILHLPANARSDLRSLPPNVRLVDWLPMGVFLNGADGFIHHGGAGNTLTALHAGIPQIVFGQGADRPVNARAVVERGCGIIPGKSGLTSSMINTFLGNRALREASQEVAAEMAAQPCPTEVAKKLIAMLQHGLEHHHHHH,not soluble
5,GPGSMAMRDVIGDPDLLLRKTPANPKYEHVKPVVETGMTAELARFMKNTGAALYRVSGEPFMRIRTRLIGDFVQKQQSQSGEIKDGGFAHPMDEYRAPDTQLPKEYLILDVRSEEEYAACHIKGALHYPKRRMVHAINPLLPEMFNFKNKENKLIVLYDLEEEMTIAQGIGQNVFEKGIDNLAVMTGGLREFVQDYADCIVGESPVPIVPRDTRLLKRAEAVSAARSETQRSAFSHKPKSLSNSLAKPRPR,soluble
6,MGSDKIHHHHHHMLVLNNLQKKFTNSKMVLNNVNAKFRSGSINCIVGVNGAGKTTLLNIISSILMPTKGDVYLNSESIFENSTLKKEIFYTPVNPFFYENLSAKDNLYLICSLYNRKIDQITIEKTIKDVGLNIEDLNIPVYNFSSGMKQKLNFASMLLVDSNVLLLDEPFNALDHVAQKNFTRILKGLVSKEKIIIFTSHLPNTILELSENIYLLKDGCFTDKRKAQSFNQTTLETWLLESQKEVIPYEEK,not soluble
7,HHHHHHMPIQVLPPQLANQIAAGEVVERPASVVKELVENSLDAGATRIDIDIERGGAKLIRIRDNGCGIKKDELALALARHATSKIASLDDLEAIISLGFRGEALASISSVSRLTLTSRTAEQQEAWQAYAEGRDMNVTVKPAAHPVGTTLEVLDLFYNTPARRKFLRTEKTEFNHIDEIIRRIALARFDVTINLSHNGKIVRQYRAVPEGGQKERRLGAICGTAFLEQALAIEWQHGDLTLRGWVADPNHTTPALAEIQYCYVNGRMMRDRLINHAIRQACEDKLGADQQPAFVLYLEIDPHQVDVNVHPAKHEVRFHQSRLVHDFIYQGVLSVLQQQLETPLPLDDEPQPAPR,soluble
8,GPGSMLDRLSCLGPRTKRWLHNNLRGRYVRVCTREQHSRKQLTPAGGPQGSALRPQLFLHCVDDLLRRMDNIYSASALMYADDLTVVASGAGTHACAAAMPPALSLITAWAAEHNHKINVDKSEAALFHISSHTRSDDEMVNLHLGNGKLRIQSRPVRLLDTTMDQLLNFDYARFHRFK,not soluble
9,MSLAKVFTQEEREKIKGQVVELVRQSGRETLRQLEVKTGATRYLMSVLARELVASGDVYNSGYGLFPSEQARKDWQNARKKLSRAKVKKPAVVDPDLIWSSPDGEIRRYDSRLNIICRECRKSEAMQRVLAFYQGNFQEAVLEGHHHHHH,not soluble
10,MAGDPMQQSDVISAAKKYMESIHQNDYTGHDIAHVYRVTALAKSIAENEGVNDTLVIELACLLHDTVDEKVVDANKQYVELKSFLSSLSLSTEDQEHILFIINNMSYRNGKNDHVTLSLEGQIVRDADRLDAIGAIGVARTFQFAGHFGEPMWTEHMSLDKINDDLVEQLPPSAIKHFFEKLLKLESLMHTDTAKMIAKERHDFMMMYLKQFFTEWNYHDLEHHHHHH,soluble
11,MGSDKIHHHHHHMTKEQSYPPTCIDCGTQNCKFKERTYPEFCLTTHLEQEDLEWALKQYNDNNKIMAASAEVEYEGYCRLTRVEEIMTFARKMGYKKLGIAYCIGLVNEARIFARILRANGFEVYSVICKVAGIAKSSIGIPKECEKIGAAMCNPILQARLLNQAYTELNVVIGLCVGHDSLFYKYSNAYTTTLVTKDRVTGHNPAAALYTANSYYRKKLMPEGEQSK,not soluble
12,MSLPPRPYDNRPPTGVRAKPVINLNIEYTSCNDSVAPACSTRPMLIENMINQRNVNINVLEGYDPKSKSVINQHSIYHLYEFESKTRFLDRIPRPRVSRFTELKTRFLCCRYVLCAIDDVMQKQKPMELMAIRLNGDIYIGANKSMDLQTDKKTQEAAFGGLNFAMKVTRESDQKILKKHHSVVKQLRIENTRNSMSMSIFVSSVARAFDQRGNVVELKTVGSKVMGKVQNLSRLKARDWWLRALLSGADRIVYGLRMDNMKVNEIHEAQLTDFTKGHFRFDGAKLFSEIFKIFSTIDKIIGAEGDMCMVKSDGSTPISVTLTTRESLKRSPFW,not soluble
13,MGSDKIHHHHHHMTTLNAIFRPFIQPHRYKIAKGGRGSGKSWAIARLLVEIARRGTYRFLCAREFQASMADSVIQLIADTIQREGYLKEFEIQKAYIRHLAATDSLFMFYGIKNNVTKIKSLEGIDIAWVEEAEAVTKESWDILIPTIRKPGSEIWVSFNSKNILDDTYQRFVVNPPDDICLLTVHYTDNPHFPEVLRLEMEECKCKDYDLYLHIWEGQPVADSDLAIIKPLWIAAAVDAHMTLGFDAVGEKRLGFDVADEGKTATPCALCRAQSC,not soluble
14,MGLFFAQNMMYNHTITVYDRNYELVKVIPDEVDLSKYGHSRFKGKYRGAPVEASFSHNGKYAWISNYQMYGPGFNNPGSDKCHPSQKTDKSFLYRINTETLKIDRVIPVGSVPKFVATSTDENLILVSNWCSWDLSVVDINQNQEIKRIKLGPYPRGIVVDPASETAYVAVMGSYNIAKVNLRDFSVQWLRNIGSSPRHLNIDPAGKYLYASLNGEGKIAKISLPQGNLVKKIATGNAPRSMVLSANGQTLYVVNYGEDTVSKVRTSDMKVLQKVKVEPDPIGITYDPQTREVWVACYSGNIMIFQDLEHHHHHH,soluble
15,MGSDKIHHHHHHMTVLIVTFSNDNESIPLVIKEIEARGEKAFRFDTDRYPTEVKLDIYCGDTERVIITDGEQKLDLSEVSSVWYRRMRYGQKIPDSMDKQYRDASIQECRVTVRGMIASLPGFHFDQMANVDRANNKQLQLKVAKEVGLLTPRTLTSNNPEAVKKFAQDCPQGIITKMLSSFAIYDDQGRENVVFTTPITNDDLENMEGLCFCPMTFQENIPKALELRTTIVGHHVFTAAVDSQSLQGSTYDWRKEGKNLAKNWQPYNLPEDIEKKLLKLMANFGLKYGAIDIIVTPDGRHVFLEVNPVGEFFWMEIYPPYYPISQAIAEILLTHKS,not soluble
